The assay deals with T1, Rhipicephalus microplus pseudo-aspartic peptidase wild type (Rhipicephalus microplus, UniProt A0A411AQW7 21-361).
T1 construct: RmPAP, pseudo-aspartic peptidase of Rhipicephalus microplus (GenBank MH427522); mature RmPAP (R21-K361) without the putative signal peptide M1-A20; lacks the second catalytic Asp (Pro242); Cloned into pET14b with an N-terminal His tag; the primers that fix the construct's limits are in Sup; also called RmPAPWT; RmPAP
T1 sequence: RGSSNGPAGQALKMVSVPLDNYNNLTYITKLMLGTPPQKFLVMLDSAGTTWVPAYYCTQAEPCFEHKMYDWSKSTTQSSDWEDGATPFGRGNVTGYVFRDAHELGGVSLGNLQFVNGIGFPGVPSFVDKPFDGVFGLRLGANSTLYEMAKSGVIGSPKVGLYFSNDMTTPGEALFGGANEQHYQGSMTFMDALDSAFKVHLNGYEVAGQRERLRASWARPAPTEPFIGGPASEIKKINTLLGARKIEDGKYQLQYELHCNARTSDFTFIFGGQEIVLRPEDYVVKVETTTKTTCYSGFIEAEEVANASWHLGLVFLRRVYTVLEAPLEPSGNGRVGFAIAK
The experiment in a line: SPR; Biacore T-200; bovine hemoglobin immobilised on a CM5 chip (FC 2) in acetate buffer pH 5.5, BSA on FC 1 as reference; increasing concentrations of RmPAPWT injected in 10 mM phosphate-citrate buffer, pH 4, 0.15 M NaCl, 20 uL/min; steady-state response (FC2 - FC1) fitted. The following applies: both partners purified.

B1: bovine hemoglobin (complex)
chain 1: not shown
chain 2: not shown
notes: hemoglobin alpha chain, bovine; hemoglobin beta chain, bovine; the heme groups are not written
Usually Kd stands for the concentration at which binding is half-saturated. High values mean a looser complex, low ones a tighter complex. The molecule B1 displayed a Kd of 33.5 nM.
